Assay results as given in the DeepSol protein solubility set.

experiment: soluble on expression in E. coli; label from the status in PepcDB or PDB records

Sequence	soluble on expression in E. coli
MGSDKIHHHHHHMNAPLSHSRPMMQPSEDKSLATVFPFAGRVLDETPMLLGEGPTFDPASGTAWWFNILERELHELHLASGRKTVHALPFMGSALAKISDSKQLIASDDGLFLRDTATGVLTLHAELESDLPGNRSNDGRMHPSGALWIGTMGRKAETGAGSIYHVAKGKVTKLFADISIPNSICFSPDGTTGYFVDTKVNRLMRVPLDARTGLPTGKAEVFIDSTGIKGGMDGSVCDAEGHIWNARWGEGAVDRYDTDGNHIARYEVPGKQTTCPAFIGPDASRLLVTSAREHLDDDAITANPQHGLTFELGIEVKGRFEPLYRL	soluble
MGSDKIHHHHHHMNCKELQLSPELTQALGEGDVFSRVMALGGEVFRDVPGRKTVRVQLAGQPYFIKQHFGVGWGEIFKNLLAFKVPIVSANTEKQAIEKLGEIGIATTPLAGFGSRGCSPASRQSFLITHDLGDILSLETLADQWMQSPPEPRFKRRLLMEVATLAARLHDSGLNHRDFYICHICLDLPRLRHGDIHLYLIDLHRVGIRETIRPQDRMKDIAALYFSAMNAGLVTRDYLRFLRRYRGKPIRQVMREERDFWQQVQARAIKLYIKLHKVEPGLHQIGGMIG	not soluble
MGSDKIHHHHHHMNDEVSKNISLSDFEPYFKEDYFREDYFYFDNAVNSPETSDRQAGVIWNLLSLGQGSSVLELGCGYGRITNRLAKKGAHVVGLDISPILLKEAETDAAERGVKVEYVLGDMRSLPWRDRFDAAFLWYTTFGYFDDADNERVLREAASSLRKGGRLLIDHPNRIDFLRHKSPVCYVTQRNNDVRIDMFSNDVLSDRSNLERLIVRDGCVRRTHLSFRQYGVSEYVRMLRSAGFETVEAYGQEGEAFTSDSSRLVVVACK	not soluble
MGSDKIHHHHHHMNEILKNSPISRAKLSEITGLNKSTISSQVNTLLENKFIFEIGEGQSRGGRRPVMLVFNKNAGYSIGIDVGVDYINGILTDLEGNIVLEKSYNLPIPSSDEVKEILFTIIKYFVSHMPESPYGLIGIGICVPGLVDKQQKIIFMPNSKWEIKDLKAVIETEFNVPVFIENEANAGAYGEKVFGNTKNFSNIIYVSINVGIGIGIIINNELYKGINGFSGEMGHMAIDFNGPKCSCGNRGCWELYASEKALLNSFFKDGKAISCHEIIELAHKNDVEVLNALQNFGFYIGIGLTNILNTFDAEAVILRNHIIESNPIVLNAIKNAVSSRVYSQIEGTYELLPSSLGKNAPALGTTSIVIEHFLNK	not soluble
MGSDKIHHHHHHMNEKELAGWFPQAKLSQEADAQSLALGDGRYLNLADADLTERERYLLSLLSHPQEQKPSSPWQSYLHGQSSLPQAVEAIQFIHVHLWSQKDAQLDAWQTMMTDLLPSQLAQVQLSSQDYLFIIEQSRWTDYQTILADTLSALEFDFGLRLTFLVGQVWSRQLADRWSQLYQAEAALFAHWRAHYHQSTVLSFSQLFLWGQGRAGLEFGMIKASMLQLIDQQDMQDIILALWTEGAVVTKTAQILYIHRNTLQYRLDKWQDLTGLQLKDLTDLSFCYQVLLDRLF	not soluble
MGSDKIHHHHHHMNELRNDLLRYLTISATDEEWGIVVTTVGYQFIPPGCAYPLSRHPEKYNFKPQTGRILNEYQLVYITKGSGYFSSQSCKSQKINAGTMILLFPGEWHSYYPDRETGWDEYWVGFRGIHIDKRVEKKFFTKEEPLHRIGLSATIVGLYEDILKFASEEKSGYQQMISSIVLHILGSVYYKEKNNSFTNTYVVDKINEARILMKENIEDPLSPEEIAARLGLGYSWFRRMFKEYTGVSPAQYQLQQKLLRAKELLTSTPLTISEIAYSLHFENAGQFSTFFKKKEGVTPSEFRDRTH	not soluble
MGSDKIHHHHHHMNEMWLHRADLAESAINERHASRLWMLPRTNLAVVAWPPTAKERLFYRWHYWWQAHYLDCLIDAASRRTTKARKQRIRDTIVGIRLRNLGRLTKNNYYDDKSWLALALDRERRLNKRAKREYLRVLEGNIAAGQDDIQGVLPWRVGEHFFNVPTNGPAAIMLARNGEVEQARKLVDWIFDNLINDKGLVMDGLRMSMRGPEIVDPVYPYCQGVVIGACIEIAEALPFEESVQYLAHARAVIHAVAKEMATPEGVINAATGDGDGGLFKGILMRYLADAAVRLPEDGPANIATKKIAKRLVMASAESVWEHRLEVDGLPVFATDWCDDARLPHNYGVGGSALSDIVRVVRIDERDLSVQLSGWMLLEAAARVSLVD	not soluble
MGSDKIHHHHHHMNFDEKPYLRSIALKHQGLAEAKVTLIDGEFHDESAVRVQDCYPFTIPALAGFDSLDFDADVTFFVGENGSGKSTLLEAIAVAMGLNAEGGNKNTHFATKVSHSNLGYYLKTIKSFKKPKDSYFLRAESFYNLASYMEEDGREAYLGSYGGTSLHQQSHGESFMATLLHKFRGQGLYLMDEPEAALSPSRQLAALSAIHQLVENKSQFIIATHSPILLAYPRAKIYQFSNQGIVQITYQETEHYQITKAFLNQPEKLLASLGVG	not soluble
MGSDKIHHHHHHMNIDEAKQLANYFSDGSPGYILEFNNLEWDLYTKKIVGFGIQERFGGSKGNSFKEFLVSEDISDHLKFKLIYSLNETMKQIASIRQFENPSSYKSPKMNPLVTLLIEEAYHKKDSARLLNGTKFSKEVNLEYIQQLPTRISKDIQNKDFDSVLTKSNTMIDEVLKYIIENTKGKSIDNNTVRSKDLRNQAFERLNIKIDKDMDKRIKALVGALNTLSDKILEMRNSQGDAHAQGSRRIVINEEEAILTANSAMILCEYLFRKYEKRKRFSDAKES	not soluble
MGSDKIHHHHHHMNIINFIKNYLSTPMSSLTFAPAHQLARMIRNREVSAVEVLNAYLAQIAKHNSKLNAICTLDEENAYLRARLADEALARGENWGALHGVPITIKDIFETAGLLTTAGYIPLKDYVPQQDATVVARLRTAGAVILGKTNMAELAGDYQSTNSLFPQVNNPWNLDYTAGGSSGGSAAAVAAGLSSLDLGNDIAGSVRQPAHFCGVYGLKPTDRRISTAGQIPEVPGMPVCLRQMMTVGCFARSLEDIRLCFSLIAGSDLRRPDVPPIPLDNPSGKSLQNLKIAWLDEWVEVPVASEIQVAMTAIAHTLTQAGVQIEPWLPKNFDLSKTLNLYGRMAAYINIYAQPVDRYNLHRSWQQIFRTATQGEKELRKLGDFSRLLPDLLNPRLKGYFEVLTERDCFTAQMDEALEPWDAWLTPVAATPAFTHRPAWSAIEIDGRPYPHAVANGAYTMPFNLSGHPAVVIPIGHTQDGLPIGMQVVGKRWREMELLAIAQELDKVINAFRSPFEII	not soluble
MGSDKIHHHHHHMNIRKYIWAYVVAMALICPGVKAQEQITIGVIQYDVRDIDKSFKALHEQGFGSCELNYSEKRFTKELAEQVKAASEKHRIRVTTLVGVPGSKSTWNFRQGPATIGLVPIDERFEKLDLYRKMIDFCVQAGIPAMHSHFGFIPEDPSSAQYKDFIEVMRGLATYAKERNVLIYFETGQETPITLIRAIRDIGTGNLFINCDLANLLMYGKSNSLDAVKLFGNLIKEFHAKDGKYPDPNNPYELGHEVPIPTGDVDFPAVIAELKKQGFKGAITIECELNGTRHDYVIQTRKYLQELLDR	not soluble
MGSDKIHHHHHHMNIRTLAAYMVFQCVFLISWSQDLKRVQKTITTLTSKTYHGRGAASNGDGLAAAYLEKQYKETGLKPVDTNFLQPFTYAINTFPGKMKLKSNLGVFKPGIDYIVKSTSGPGKGTCDVYLVDTLIFTDDGKLKEFLQLDVTALVVVYPKKYFKEFTASTPDLLKQLYSAAAIIELQDKKLTMALADQSFGTPVFEVLTTSFSPDIKTISFEIENELIKKHQANNVIGMIEGRSKKDSFIVLTAHYDHLGTLGRKAYFPGANDNASGVSMLLEFAHYYMENPPEYSMLFIAFAGEESGLLGSSYFVAHPLVPLAGIHFLINLDLLGTGDDGIMVVNGSVFKPAYNRLIAINEEKKLLPAIKMRGEAANSDHYPFYKKGVPCFFIYTLGGVAAYHDVQDVAKTLPLTKYREVFQLIVLFNGEK	not soluble
MGSDKIHHHHHHMNKETQAMMLVPQGSIEGYIHAAYDYPMLTAEEEKELAERLYYHQDLDAAKTLILSHLRFVIHVARGYSGYGLPQADLIQEGNIGLMKAVKRFNPEVGVRLVSFAVHWIKAEIHEYVLRNWRIVKVATTKAQRKLFFNLRKTKQRLGWFSDKEVDMVANELGVSKEDVLEMESRMTGSDVGFDLPVDDDESYAPALYLEDKSSNFAAELENENFETQAADQVANALAELDERSQDIIKSRWLDDEKATLHDLAAKYNISAERVRQLETNALKKLKSAVSF	not soluble
MGSDKIHHHHHHMNLLDHLRRMAGNNLWSNDRLYRAVLALKPGEFEAERTSFFPSIKATLNHVLAVDYLYLDFLEEGGVGAAAHDDFVPFDEPQPLFAAQMAADRRLIAFCDGLSEADLDRRVITDRRADGMIPERIGDILAHVFLHDIHHRGQVHAMLSGTSVVPPQLDEFLLDYDAKLRKAEVERLGL	not soluble
MGSDKIHHHHHHMNLRRDALQILKETSRTFYIPISLLPPGLQEAVASAYLCMRAIDEIEDHPEIDNATKAKLLRSISLTLQAGVDGFAVEAFFTGFNGYENTLEEVTLRIREWLLLAPETIAPRIWDATAAMSDRMAYWSERNWKIYTESDLDRYTFGVAGAVGLLLSDLWTWYDGTQTNRTQAIGFGRGLQAVNILRNHTEDLRRGVDFFPEGWSAENMQEYARRNLALAEAYTKGLPTGPALDFCQIPLTLANGTLDALANGKEKLSRSDVFALIEQIISVNMKAS	not soluble
MGSDKIHHHHHHMNNKERLLYVQEILQKETDEENELTLEQIMTKLHAVKGTEVNKKTLRDDLNALKDSGLFPISVNQEKNGVEKTYQHRTKLFTIQELRLLADALTTASFISKEETEQMINKLKKLTSHRLADHLDNRLLVPPDRGNREVQELIKTVHLLHDVIKHGEVIRYQYGQYNLTKEFTLRENGRFYTLKSYALIWDDQRYYLIGEDEDEDLIRYERVDQMYHVERTGAFFTWPEKFDLMEWLRTHSSVMTEQKEDLQLECHLDSLQDVLDCFGLDVTIQSLTDERFLLATKAVIDKGLMDWLFSLGGKVKVIHPPKLAEEIQREATAIIDQYRLANS	not soluble
MGSDKIHHHHHHMNQRMKSHFQYSTLENIPKAFDILKDPPKKLYCVGDTKLLDTPLKVAIIGTRRPTPYSKQHTITLARELAKNGAVIVSGGALGVDIIAQENALPKTIMLSPCSLDFIYPTNNHKVIQEIAQNGLILSEYEKDFMPIKGSFLARNRLVIALSDVVIIPQADLKSGSMSSARLAQKYQKPLFVLPQRLNESDGTNELLEKGQAQGIFNIQNFINTLLKDYHLKEMPEMEDEFLEYCAKNPSYEEAYLKFGDKLLEYELLGKIKRINHIVVLA	not soluble
MGSDKIHHHHHHMNQSKTAIVIDSSANIAPEIVRKYHFTIVNQPVMFGKHVYHENMDIDSDEFYRMLKLEKYHPTASQIPMKEMQEVFSNLAQAGYEAALCIGLSGGLSGFINSVSASVPAIKDLQVYPYDSGSILAGVEKVAILASHLLDNGVDIHEVLHQMRKYRRQTQAYIAVNNIKELQNMGNISNRTSLVGSFFGMRPILTINHQGRLEMVGKERQMKNAMEAIEEIFDKQLVDHTNLVVTVIDANDVDRSMQWQSTLKAKYPGMQVESQQIGPYVGTYTGSKAIGLIWSPKL	not soluble
MGSDKIHHHHHHMNQSLRPDKAALVELFRDFIEPQYVINDEETQKPFECDGLSVYCDMPLITVLPKTVEQVCEVMRICYRYQIPVVARGAGTGLCAGAMPNPDGVLLVLSRFKHILDIDPLARSARLQPGVRNLAISEAASPYGLYYGPDPSSQIACSIGGNVAENSGGVHCLKYGLTTHNLLKIEMVTVEGELITIGSEGLDSNGFDLMALITGSEGLLGVITEVTVKLLPSPEKAQVIMAGFDNVQTAGDAVGGVIAKGIIPAGLEMMDSPAIIAAEAFAHAGYPTDAQALLLCELDGSEAEVQEQIAEVEQLFIELGATTTRVSQSEAERALLWKGRKSAFPAVGRISPDYYCMDGTIPRSQLAHVLTEMQKLSEQYGLRVANVFHAGDGNLHPLILFDANVPGELERTEEFGSRILELCVKVGGCITGEHGVGVEKIRQMTIQFNDQELTQFHAIKHAFDPIGTLNPGKGIPVLKRCQEYRTLDRPQHKHDSQPQQGDLA	not soluble
